# Measured values published in article doi:10.1101/208041.
# Changes are numbered by the printed parent chain. Where two headings read alike, the source gives them in different places.
# T1: dMpAgo (catalytically inactive MpAgo) D446A (Marinitoga piezophila) (UniProt H2J4R4)
# T1 sequence: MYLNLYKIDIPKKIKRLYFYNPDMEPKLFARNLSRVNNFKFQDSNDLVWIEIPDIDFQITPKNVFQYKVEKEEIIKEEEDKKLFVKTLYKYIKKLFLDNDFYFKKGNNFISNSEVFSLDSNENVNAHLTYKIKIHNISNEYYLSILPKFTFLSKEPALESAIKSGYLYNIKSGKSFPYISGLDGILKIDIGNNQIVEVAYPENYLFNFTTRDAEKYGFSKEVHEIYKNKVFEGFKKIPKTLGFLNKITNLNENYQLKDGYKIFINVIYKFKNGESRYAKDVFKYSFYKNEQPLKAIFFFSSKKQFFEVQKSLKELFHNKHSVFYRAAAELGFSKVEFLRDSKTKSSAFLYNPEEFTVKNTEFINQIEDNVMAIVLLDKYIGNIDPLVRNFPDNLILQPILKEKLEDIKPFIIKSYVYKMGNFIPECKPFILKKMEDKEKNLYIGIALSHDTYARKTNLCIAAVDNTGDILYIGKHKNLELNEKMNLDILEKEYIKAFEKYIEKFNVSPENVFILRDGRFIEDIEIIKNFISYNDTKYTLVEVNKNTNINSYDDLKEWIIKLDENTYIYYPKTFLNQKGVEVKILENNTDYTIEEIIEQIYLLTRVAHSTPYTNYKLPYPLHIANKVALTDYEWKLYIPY
# T2: dMpAgo (catalytically inactive MpAgo) (Marinitoga piezophila, UniProt H2J4R4 1-639, D446A)
# T2 sequence: T1 sequence
# T3: MpAgo WT (Marinitoga piezophila, UniProt H2J4R4 1-639)
# T3 sequence: T1 sequence with A446D
# B1: BrdU guide / 18-nt target (mixed)
# RNA 1: UAUACAACCUACUACCUCAUU
# RNA 2: GGACUAUGUAGAUCUAUAAUUAGAGGUAGUAGGUUGUAUCUCAGGAGGUC
# modifications: BrdU at guide 1
# B2: BrdU guide / 15-nt target (mixed)
# RNA 1: UAUACAACCUACUACCUCAUU
# RNA 2: B1 RNA 2 with G23C, A24U, G25C
# modifications: BrdU at guide 1
# B3: rA guide / OFF target (mixed)
# RNA 1: AAUACAACCUACUACCUCAUU
# RNA 2: GUUAUGUGUGUGAUUAUAUUUGUUCCAGUUCCUGUGUAAUAGACAUGGAA
# B4: rC guide / OFF target (mixed)
# RNA 1: CAUACAACCUACUACCUCAUU
# RNA 2: B3 RNA 2
# B5: rU guide / OFF target (mixed)
# RNA 1: UAUACAACCUACUACCUCAUU
# RNA 2: B3 RNA 2
# B6: dU guide / OFF target (mixed)
# RNA 1: UAUACAACCUACUACCUCAUU
# RNA 2: B3 RNA 2
# modifications: dU at guide 1
# B7: A7 guide / mm3 (mixed)
# RNA 1: UAGCGGAUGCCAUAUCCAACU
# RNA 2: GGCAGCAUUCAACCAUAUGGCAUCCGAAUACAGCCAAG
# modifications: BrdU at guide 1
# B8: U7 guide / A target (mixed)
# RNA 1: UAGCGGUUGCCAUAUCCAACU
# RNA 2: B7 RNA 2 with U23A, A27C
# modifications: BrdU at guide 1
# B9: G7 guide / C target (mixed)
# RNA 1: UAGCGGGUGCCAUAUCCAACU
# RNA 2: B7 RNA 2 with U23C, A27C
# modifications: BrdU at guide 1
# B10: C7 guide / G target (mixed)
# RNA 1: UAGCGGCUGCCAUAUCCAACU
# RNA 2: B7 RNA 2 with U23G, A27C
# modifications: BrdU at guide 1
# B11: A6 guide / mm12 (mixed)
# RNA 1: UGCGGAUGCCAUAUGCAACUU
# RNA 2: B7 RNA 2 with A17C, A27C
# modifications: BrdU at guide 1
# B12: A6 guide / mm4 (mixed)
# RNA 1: UGCGGAUGCCAUAUGCAACUU
# RNA 2: B7 RNA 2 with C25A, A27C
# modifications: BrdU at guide 1
# B13: A7 guide / mm9 (mixed)
# RNA 1: UAGCGGAUGCCAUAUCCAACU
# RNA 2: B7 RNA 2 with C21A, A27C
# modifications: BrdU at guide 1
# B14: A6 guide / mm7 (mixed)
# RNA 1: UGCGGAUGCCAUAUGCAACUU
# RNA 2: B7 RNA 2 with A22C, A27C
# modifications: BrdU at guide 1
# B15: A6 guide / mm11 (mixed)
# RNA 1: UGCGGAUGCCAUAUGCAACUU
# RNA 2: B7 RNA 2 with U18G, A27C
# modifications: BrdU at guide 1
# B16: A6 guide / mm8 (mixed)
# RNA 1: UGCGGAUGCCAUAUGCAACUU
# RNA 2: B7 RNA 2 with C21A, A27C
# modifications: BrdU at guide 1
# B17: A7 guide / G target (mm7) (mixed)
# RNA 1: UAGCGGAUGCCAUAUCCAACU
# RNA 2: B7 RNA 2 with U23G, A27C
# modifications: BrdU at guide 1
# B18: A6 guide / mm2 (mixed)
# RNA 1: UGCGGAUGCCAUAUGCAACUU
# RNA 2: B7 RNA 2
# modifications: BrdU at guide 1
# B19: A6 guide / mm5 (mixed)
# RNA 1: UGCGGAUGCCAUAUGCAACUU
# RNA 2: B7 RNA 2 with C24A, A27C
# modifications: BrdU at guide 1
# B20: A6 guide / mm3 (mixed)
# RNA 1: UGCGGAUGCCAUAUGCAACUU
# RNA 2: B7 RNA 2 with G26U, A27C
# modifications: BrdU at guide 1
# B21: U6 guide / A target (mixed)
# RNA 1: UGCGGUUGCCAUAUGCAACUU
# RNA 2: B7 RNA 2 with U23A, A27C
# modifications: BrdU at guide 1
# B22: A7 guide / U target (mixed)
# RNA 1: UAGCGGAUGCCAUAUCCAACU
# RNA 2: B7 RNA 2 with A27C
# modifications: BrdU at guide 1
# B23: A6 guide / mm10 (mixed)
# RNA 1: UGCGGAUGCCAUAUGCAACUU
# RNA 2: B7 RNA 2 with G19U, A27C
# modifications: BrdU at guide 1
# B24: rA guide / ON target (mixed)
# RNA 1: AAUACAACCUACUACCUCAUU
# RNA 2: GGACUAUGAUCUAGAUAUUAAUGAGGUAGUAGGUUGUAUCUCAGGAGGUC
# B25: rU guide / ON target (mixed)
# RNA 1: UAUACAACCUACUACCUCAUU
# RNA 2: B24 RNA 2
# B26: dU guide / ON target (mixed)
# RNA 1: UAUACAACCUACUACCUCAUU
# RNA 2: B24 RNA 2
# modifications: dU at guide 1
# B27: rC guide / ON target (mixed)
# RNA 1: CAUACAACCUACUACCUCAUU
# RNA 2: B24 RNA 2
# Key:
# Test in all cases: filter binding
# [1] = molecular target: T1, dMpAgo (catalytically inactive MpAgo) D446A (Marinitoga piezophila); conditions: BrdU at guide 1; for binding signal (fold Kd vs complementary): internal desthiobiotin-TEG before last AA
# [2] = molecular target: T2, dMpAgo (catalytically inactive MpAgo)
# MpAgo WT = molecular target: T3, MpAgo WT
# [3] = molecular target: T2, dMpAgo (catalytically inactive MpAgo); remark: listed apart in the source
# [4] = molecular target: T2, dMpAgo (catalytically inactive MpAgo); remark: listed apart in the source
# [5] = molecular target: T2, dMpAgo (catalytically inactive MpAgo); remark: listed apart in the source
# [6] = molecular target: T2, dMpAgo (catalytically inactive MpAgo); remark: listed apart in the source
molecule,measurement,setting,value
UGCGGAUGCCAUAUGCAACUU / GGCAGCAUUCAACCAUAUGGCANCCGCAUACAGCCAAG [A6 guide / I target],binding signal,[1]; N = inosine at target 23,19 % bound
UAUUGUGACAAGAAUGCUGUUAAAAAAAAAAA / GGCAGCAUUCAACAUUGUUGUCACAAUAUACAGCCAAG [32-nt guide / mm12],binding signal (fold Kd vs complementary),[1],> 5
UAUUGUGACAAGAAUGCUGUUAAAAAAAAAAA / GGCAGCAUUCAACAUUCUAGUCACAAUAUACAGCCAAG [32-nt guide / mm10],binding signal (fold Kd vs complementary),[1],> 5
B1,Kd,[2],0.107 ± 0.006 nM
B2,Kd,[2],0.083 ± 0.008 nM
"CAUACAACCUACUACCUCAUU (ssRNA, 5'-OH) [gRNA 5'-rC]",Kd,MpAgo WT,104 ± 9 nM
B3,Kd,[3],112 ± 19 nM
B4,Kd,[3],112 ± 18 nM
B5,Kd,[3],359 ± 37 nM
B6,binding result,[3],no binding
B7,binding signal,[4],32 fold Kd vs complementary
B8,binding result,[5],binds
B9,binding result,[5],binds
B10,binding result,[5],binds
B11,binding signal,[6],> 5 fold Kd vs complementary
B12,binding signal,[6],> 5 fold Kd vs complementary
B13,binding signal,[4],327 fold Kd vs complementary
B14,binding signal,[6],> 5 fold Kd vs complementary
B15,binding signal,[6],> 5 fold Kd vs complementary
B16,binding signal,[6],> 5 fold Kd vs complementary
B17,binding signal,[4],301 fold Kd vs complementary
B18,binding signal,[6],> 5 fold Kd vs complementary
B19,binding signal,[6],> 5 fold Kd vs complementary
B20,binding signal,[6],> 5 fold Kd vs complementary
B21,binding result,[5],binds
B22,binding result,[5],binds
B23,binding signal,[6],> 5 fold Kd vs complementary
"UAUACAACCUACUACCUCAUU (ssRNA, 5'-OH) [gRNA 5'-rU]",Kd,MpAgo WT,81 ± 9 nM
B24,Kd,[3],12 ± 2 nM
B25,Kd,[3],5 ± 0.8 nM
B26,Kd,[3],0.5 ± 0.067 nM
B27,Kd,[3],4.6 ± 0.5 nM
"AAUACAACCUACUACCUCAUU (ssRNA, 5'-OH) [gRNA 5'-rA]",Kd,MpAgo WT,73 ± 10 nM
